Assays:
[1] = target: AAV2 (wild type), serotype 2 AAV with capsid region VP1 of SEQ ID NO: 99 (adeno-associated virus serotype 2 (AAV2)) (UniProt P03135); experiment: affinity HPLC, POROS AAVX resin, linear pH gradient 4.5 to 2.2, AAV2 peak top
[2] = target: AAV2 D529E (adeno-associated virus serotype 2 (AAV2)) (UniProt P03135); experiment: as above
[3] = target: AAV2 E499A (adeno-associated virus serotype 2 (AAV2)) (UniProt P03135); experiment: as above
[4] = target: AAV2 G383A (adeno-associated virus serotype 2 (AAV2)) (UniProt P03135); experiment: as above
[5] = target: AAV2 H271Q (adeno-associated virus serotype 2 (AAV2)) (UniProt P03135); experiment: as above
[6] = target: AAV2 H271T (adeno-associated virus serotype 2 (AAV2)) (UniProt P03135); experiment: as above
[7] = target: AAV2 Q385A (adeno-associated virus serotype 2 (AAV2)) (UniProt P03135); experiment: as above
[8] = target: AAV2 S264A (adeno-associated virus serotype 2 (AAV2)) (UniProt P03135); experiment: as above
[9] = target: AAV2 S267A (adeno-associated virus serotype 2 (AAV2)) (UniProt P03135); experiment: as above
[10] = target: AAV2 (wild type), serotype 2 AAV with capsid region VP1 of SEQ ID NO: 99 (adeno-associated virus serotype 2 (AAV2)) (UniProt P03135); experiment: affinity HPLC, POROS AAVX resin, linear pH gradient 6.0 to 2.0, AAV2 peak top
[11] = target: AAV2 D528A (adeno-associated virus serotype 2 (AAV2)) (UniProt P03135); experiment: as above
[12] = target: AAV2 D529A (adeno-associated virus serotype 2 (AAV2)) (UniProt P03135); experiment: as above
[13] = target: AAV2 D529E (adeno-associated virus serotype 2 (AAV2)) (UniProt P03135); experiment: as above
[14] = target: AAV2 E499A (adeno-associated virus serotype 2 (AAV2)) (UniProt P03135); experiment: as above
[15] = target: AAV2 G383A (adeno-associated virus serotype 2 (AAV2)) (UniProt P03135); experiment: as above
[16] = target: AAV2 H271A (adeno-associated virus serotype 2 (AAV2)) (UniProt P03135); experiment: as above
[17] = target: AAV2 H271F (adeno-associated virus serotype 2 (AAV2)) (UniProt P03135); experiment: as above
[18] = target: AAV2 H271Q (adeno-associated virus serotype 2 (AAV2)) (UniProt P03135); experiment: as above
[19] = target: AAV2 H271T (adeno-associated virus serotype 2 (AAV2)) (UniProt P03135); experiment: as above
[20] = target: AAV2 N382A (adeno-associated virus serotype 2 (AAV2)) (UniProt P03135); experiment: as above
[21] = target: AAV2 Q263A (adeno-associated virus serotype 2 (AAV2)) (UniProt P03135); experiment: as above
[22] = target: AAV2 Q385A (adeno-associated virus serotype 2 (AAV2)) (UniProt P03135); experiment: as above
[23] = target: AAV2 R471A (adeno-associated virus serotype 2 (AAV2)) (UniProt P03135); experiment: as above
[24] = target: AAV2 S264A (adeno-associated virus serotype 2 (AAV2)) (UniProt P03135); experiment: as above
[25] = target: AAV2 S267A (adeno-associated virus serotype 2 (AAV2)) (UniProt P03135); experiment: as above
[26] = target: AAV2 S267T (adeno-associated virus serotype 2 (AAV2)) (UniProt P03135); experiment: as above
[27] = target: AAV2 S384A (adeno-associated virus serotype 2 (AAV2)) (UniProt P03135); experiment: as above
[28] = target: AAV2 T503S (adeno-associated virus serotype 2 (AAV2)) (UniProt P03135); experiment: as above

## POROS Capture Select AAVX Affinity Resin (manufactured by Thermo Fisher Scientific)
[1]
  AAVX column elution time: 48.2 min
[2]
  AAVX column elution time: 48 min
[3]
  AAVX column elution time: 47.8 min
[4]
  AAVX column elution time: 48.1 min
[5]
  AAVX column elution time: 48.1 min
[6]
  AAVX column elution time: 47.9 min
[7]
  AAVX column elution time: 47.9 min
[8]
  AAVX column elution time: 48 min
[9]
  AAVX column elution time: 48 min
[10]
  AAVX column elution time: 59.3 min
[11]
  AAVX column elution time: 59.1 min
[12]
  AAVX column elution time: 59.3 min
[13]
  AAVX column elution time: 59.3 min
[14]
  AAVX column elution time: 59.3 min
[15]
  AAVX column elution time: 59.3 min
[16]
  AAVX column elution time: 59.4 min
[17]
  AAVX column elution time: 59.3 min
[18]
  AAVX column elution time: 59.3 min
[19]
  AAVX column elution time: 59.3 min
[20]
  AAVX column elution time: 59.2 min
[21]
  AAVX column elution time: 59.3 min
[22]
  AAVX column elution time: 59.3 min
[23]
  AAVX column elution time: 59.4 min
[24]
  AAVX column elution time: 59.2 min
[25]
  AAVX column elution time: 59.3 min
[26]
  AAVX column elution time: 59.2 min
[27]
  AAVX column elution time: 59.3 min
[28]
  AAVX column elution time: 59.4 min

— patent US20250236657A1 (TOSOH, published 2025)
